Patent US20050079613

System: three human E2 enzymes UbCH2, UbCH3 and UbCH5a (at least one of these three enzymes)

GST fusion of the MARCH-VIII RING-CH domain
formation of high-molecular weight ubiquitin complexes in vitro (anti-ubiquitin blot): The RiNG-CH-GST fusion proteins of all four MARCH-proteins tested were able to catalyze the formation of high-molecular weight molecular ubiquitin complexes in the presence of at least one of these three enzymes
